Source: article PMC7284552

System: T1, A1S_0316 (putative IclR-type transcription factor) (Acinetobacter baumannii ATCC 17978), ORF:5d858888
T1 sequence: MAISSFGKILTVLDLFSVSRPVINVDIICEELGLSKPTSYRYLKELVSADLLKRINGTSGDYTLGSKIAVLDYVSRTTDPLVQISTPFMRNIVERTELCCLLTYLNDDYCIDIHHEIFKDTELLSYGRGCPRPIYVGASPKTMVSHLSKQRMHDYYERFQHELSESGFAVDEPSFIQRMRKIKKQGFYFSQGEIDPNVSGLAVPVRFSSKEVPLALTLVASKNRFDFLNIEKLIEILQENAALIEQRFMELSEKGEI
Experiment: competition
Conditions: EMSA: 5 min at 37 C, 5% native PAGE (40:1), 100 V 1.5 h; binding buffer, salt and pH not stated

For “GGCAAGCGAAACAAAGAAGTTGTTCATATTTGCTAGTTGGGTAAAAAATTACCGAATTACAACGGAAATTGTAAGTAATTTTGTCAATAATTTACTTGATTAAAATTATCAAGCACTTGGAAAGTCTATCAAGTGTTTGTATGATTCAAATGTGAATAGCTTAAAAATAATACTGGGGTAAAAAAATATCTCAGGGGCCAATAAATTTAGGCTGAGCTTGAACAACAATTGTTATCTCTGGAGGATATCCATGAAATTGAGTCGTATTGCACTTGCTACTATGCTTGTTGCTGCTCCATT (double strand) [AbOmpA promoter (AbOmpAp), -231 to +100]”, the binding was “binds”.
